Measurements from the supplement of paper PMC9170038.

System: K4 kissing-loop RNA reporter
Experiment: apparent KD of K4 kissing-loop reporter; higher = weaker reporter binding
Settings: Eterna round: R107
Method: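 RNA-MaP round R107: designed RNA switches with theophylline, tryptophan, arginine or FMN aptamers are transcribed on-chip within common flanks. They are titrated with a labelled K4 kissing-loop RNA reporter in RNA-MaP buffer (100 mM Tris pH 7.5, 80 mM KCl, 4 mM MgCl2), without ligand or with the indicated ligand. Median apparent KD per design.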

[1] = input ligand: theophylline 20 uM
[2] = input ligand: tryptophan 2.4 mM
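Note: bound reporter read as fluorescence of individual clusters on recovered sequencing chips by microscopy, with normalized cluster intensities fitted with a binding model.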

Sequence	apparent KD of K4 kissing-loop reporter (input ligand: FMN 200 uM) [nM]	apparent KD of K4 kissing-loop reporter (input ligand: arginine 13.2 mM) [nM]	apparent KD of K4 kissing-loop reporter (input ligand: none) [nM]	apparent KD of K4 kissing-loop reporter [1] [nM]	apparent KD of K4 kissing-loop reporter [2] [nM]
UUUAAAUAUAGUGAUGUUAUAUAACAAUGACGAGGACCGGUACGGCCGCCACUCGAGAGAGAUAAUGAUAAAAUACAUAAUUUUC [AstrosSSTrypA#2]	668	746	806	709	474
GAGGAUAGCGGAAGGAGCGAGUAAUGGAGUGAUGUUCCAAUCAAUAAAACACGAUAGAGUGCUCAGGUAGGUCGCCGUGGUGGUU [Exclusion Argiie B GF 13]	124	143	165	277	111
CUGUUUGGUUGAGAGGUUGGGCGGAAUGAUACCAGUAUAUAAGAAUACCCUUGGCAGCAUAAGAAAGAUAUAGUGAUGUUGUAUA [SSTheophA.K]	526	297	464	536	417
ACCACCUGUCUGGAUACCAGUCUUCGAGUGAUGUUGGAAGUUAGCCGGUUCUAUUACCUAGACCCUUGGCAGCCAGGAAUUAUAG [theeternabot_exclusion_KL_Theo_B_17]	1140	861	1500	1130	872
UUGCCUUUGAGCGAUACCAGCAGCGUCGGCCUUAGAUUGGGAGGCAUGGCAAGUGAUGUUUGCCCUUGGCAGCGCGUAUAGUACA [theeternabot_exclusion_KL_Theo_B_7]	197	320	459	439	219
AGAGUUAUAUGAGGAUAUGGGAUAGUAAAUGAGUGAGUUAUAGUGUAGUUUGUUUAGUGAUGUUAUUUAGAAGGCGUGAGUGAUG [dgnnmullin]	193	114	100	113	86.4
UCGCAAAAGUCGGCCGCCACUCCGGGCCCUAUAAAUGGGCGCAGUGAUGUUGCGGCUAGGCCUCUGAGGACCGGGACUUUGAAGA [Esesbior]	101	25	23.9	102	131
AAUUUAGUGACGGCCGCCACUAGGGUGAUUUAUUUGUUUGAGUGAUGUUUUGAUGUUUGAUUUUGUAGGACCGGGUUAGGUGAUG [dddcmullin]	354	304	363	326	271
UUUGGUUUCUCGGCCGCCACUCGUUGUCUAUCGGCUUCAGGGAUAUAGUGAUGUUAUGUAUAGAAGAGGACCGGGAGAAGGUUCC [ExTryptoB.Dy]	217	169	303	237	165
AGACUACCACACUGUCAAUAGACAGUGAACUAGGAUAUGCUGAUAAGCAGAAGGAGUGAUGUUCCUAAAGGUAGUCAAAUAUAAU [FmnAX 14 #SwitchBubble #StaticStem #K4Early]	335	380	380	567	351
CGCAGUGAUGUUGCGAGUUUGAUCAGGGAAGGAGCGGCUCAGAAGCCAGGUAGGUCGCCCACGCAGUGAUGUUGUGUAUUCGGGU [Exclusion Arginine A GF 1]	96.9	88.1	87.9	89.1	79.3
CGUGAAUGUCGUCAGUCAUCGGUCCAUGCACGAGGACCGGUACGGCCGCCACUCGAGCGUGGCAGUGAUGUUGCCAGCGCACUAA [KL-XTryp-A13]	138	115	128	137	315
UCGAAGGAUGGAAGGAGCGCUCGUCAGUCCUGCGAGUGAUGUUCGUGGGUAAAUAUUCGCGAGCAGGUAGGUCGCCAUCUCGAAC [Erbemaa]	149	103	141	122	117
UUGUAUACUUUUGUGUGCGAUGUGUAGCCGCGAGGACCGGUACGGCCGCCACUCGCUGAGAGUGAUGUUCUCUGGGCUAUAUAUC [Skye_SS_TA3]	1100	924	1700	794	234
GAGAUGCACCAGUCUUAACGUGACUUAUCCCGAGGACCGGUACGGCCGCCACUCGCGUACUACUAGUGAUGUUGGUCAGUAUGAG [theeternabot_sameState_KL_Trp_A_26]	244	185	215	223	235
AAUACCUGAGUGAUGUUCAGGGAAUCAGAAGGAGCGUCAAUUAUGACAGGUAGGUCGCUGAAUACAUGUGUGUAUACACAUGUAC [Arg A SS t4]	217	189	278	243	229
GUUACGCAUGGAAGGAGCGCAGGCUCAACAAAUAGCUCAGUGAUGUUGAGCAUAUUAAUUCUGCAGGUAGGUCGCCAUGUGUAAC [Ex Arginine B K4 25]	531	491	551	536	508
UGAUCUGCAGUGAUGUUGCAGUAGCUGUCAGAGGAUAUCAGACUCAUGAGAAGGCUGACAAUGUCUAACAGCACAAUGCUGUUCA [FMN A SS t6]	156	156	166	197	146
AGUACAAUGGCGGCCGCCACUCAACGCAGAUCAAAGAUCUGCGAUCACUCAGUGAUGUUGAGUGAGAGGACCGGGCCUUUGUACA [Omei KL Tryp B SS B v6]	354	272	307	311	135
GCUAUCUGAGCCCAGUGAUGUUGAGUGCUGAAGGAUAUGCGAUAGAGCAGAAGGUCAAGAACAUUGUUCGAUUAUCAAAACAAGU [theeternabot_exclusion_KL_FMN_A_35]	264	264	272	356	328
UUUAAAUAUAGUGAUGUUAUAUAACAAUGACGAGGACCGGUACGGCCGCCACUCGAGAGAGAUAAUGAUAAAAUAAAUAAUUUUC [AstrosSSTrypA#1]	480	654	643	628	374
